For one experiment, the target named is T1, Boc-L-R-R-MCA.
T1 sequence (peptide, N-terminal Boc; C-terminal methylcoumarinamide (MCA)): LRR

In a further experiment the target is T2, Z-R-R-MCA.
T2 sequence (peptide, N-terminal Z; C-terminal methylcoumarinamide (MCA)): RR

Experiment [1] deals with T3, vasoactive intestinal peptide (VIP).
T3 sequence (peptide, C-terminal amide (--CO--NH2)): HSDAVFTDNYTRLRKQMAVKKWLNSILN

The target is the same in experiment [2]. In words: binding studies under conditions that did not permit VIP hydrolysis (high ionic strength).

“bovine pancreatic trypsin (from UniProt P00760) (enzyme)”: the fluorescence of the leaving group methylcoumarinamide in the experiment with Boc-L-R-R-MCA is 263 units; with Z-R-R-MCA, 179 units; with P-F-R-MCA, 194 units.

B1: monoclonal antibody c23.5 (IgG2a, kappa) (antibody, V domains shown)
VH: EVQLQESGGGLVKPGGSLKLSCAASGFTFSIYGMSWFRQTPEKRLEWVATISGGDTYTYYPDSVKGRFTISRDNAKNNLFLQMSSLRSEDTALYFCGRGIAYWGQGTLVTVSA
VL: DIVLTQSPASQSASLGESVTITCLASQTIGTWLPWYQQKLGKSPQLLIYAATSLADGVPSRFSGSGSATKFSFKISSLQAEDFVSYNCQHLYSTPLTFGGGTKL
B1: the fluorescence of the leaving group methylcoumarinamide with Boc-L-R-R-MCA was less than 1 unit. The fluorescence of the leaving group methylcoumarinamide with Z-R-R-MCA is less than 1 unit. In addition, in experiment [1], the Km (in general, the concentration of substrate that gives half-maximal velocity) came out at 2 nM; the kcat – broadly, the number of substrate molecules converted per active site and unit of time at saturation – was 1.33e-06 s⁻¹. In addition, in experiment [2], the Kd (in general, a measure of binding affinity in units of concentration) is 3.4 nM.

The values are drawn from patent publication US5318897.
